Reference: the supplement of paper PMC10724198
± gives the standard deviation of the averaged measurements.

Key:
Saccharomyces cerevisiae [1] = test: protein stability index of tFT-peptide fusion (C-terminal peptide) (PSI (0-1 scale)); higher = more stable (slower turnover)
Experimental: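 MPS profiling in S. cerevisiae of the tFT-X12 degron library: putative degron peptides plus stable controls, 12 aa, fused to the C-terminus of a sfGFP-mCherry timer. Cells are FACS-sorted into 8 mCherry/sfGFP bins and deep-sequenced. PSI runs from 0 (unstable) to 1 (stable). Backgrounds are wild type, das1Δ and doa10Δ at 30 °C, and wild type, das1Δ, cdc34-1 and cdc53-1 at 37 °C; 2-3 technical replicates each.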

Saccharomyces cerevisiae [2] = test: as above; conditions: genetic background: wild type; temperature: 30 C
[3] = genetic background: cdc34-1, temperature: 37 C
[4] = genetic background: cdc53-1, temperature: 37 C
[5] = genetic background: das1 deletion, temperature: 30 C
[6] = genetic background: das1 deletion, temperature: 37 C
[7] = genetic background: doa10 deletion, temperature: 30 C
[8] = genetic background: wild type, temperature: 30 C
[9] = genetic background: wild type, temperature: 37 C
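Also: PSI is a weighted mean of sequencing reads over stability bins, variants kept only with over 10 reads, mCherry proximal and sfGFP distal, peptide attached via GGGS linker.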

In the case of FPPCSFLGFLVF, the protein stability index (Saccharomyces cerevisiae [1]; [3]) is reported as 0.69 ± 0.027, the protein stability index (Saccharomyces cerevisiae [1]; [4]) is reported as 0.768 ± 0.014 and the protein stability index (Saccharomyces cerevisiae [1]; [5]) is reported as 0.571 ± 0.023. For the same sequence, the protein stability index (Saccharomyces cerevisiae [1]; [6]) was 0.73 ± 0.014, the protein stability index (Saccharomyces cerevisiae [1]; [7]) was 0.556 ± 0.018 and the protein stability index (Saccharomyces cerevisiae [1]; [8]) was 0.556 ± 0.014. For the same sequence, the protein stability index (Saccharomyces cerevisiae [1]; [9]) was 0.688 ± 0.034.
FFSFLFLLLFGA gave a protein stability index (Saccharomyces cerevisiae [1]; [3]) of 0.566 ± 0.016, a protein stability index (Saccharomyces cerevisiae [1]; [4]) of 0.643 ± 0.0069 and a protein stability index (Saccharomyces cerevisiae [1]; [5]) of 0.556 ± 0.018. It also gave a protein stability index (Saccharomyces cerevisiae [1]; [6]) of 0.619 ± 0.07, a protein stability index (Saccharomyces cerevisiae [1]; [7]) of 0.555 ± 0.016 and a protein stability index (Saccharomyces cerevisiae [1]; [8]) of 0.5673 ± 0.0056. The protein stability index (Saccharomyces cerevisiae [1]; [9]) was 0.617 ± 0.046.
LWGVGFLFVLVG gave a protein stability index (Saccharomyces cerevisiae [1]; [3]) of 0.1858 ± 0.0014, a protein stability index (Saccharomyces cerevisiae [1]; [4]) of 0.268 ± 0.024 and a protein stability index (Saccharomyces cerevisiae [1]; [5]) of 0.229 ± 0.036. The protein stability index (Saccharomyces cerevisiae [1]; [6]) was 0.403 ± 0.039, the protein stability index (Saccharomyces cerevisiae [1]; [7]) was 0.105 ± 0.0094 and the protein stability index (Saccharomyces cerevisiae [1]; [8]) was 0.131 ± 0.017. It also gave a protein stability index (Saccharomyces cerevisiae [1]; [9]) of 0.183 ± 0.014.
For RPPPAANFTRSS, the protein stability index (Saccharomyces cerevisiae [1]; [3]) was 0.655 ± 0.022, the protein stability index (Saccharomyces cerevisiae [1]; [4]) was 0.688 ± 0.024 and the protein stability index (Saccharomyces cerevisiae [1]; [5]) was 0.665 ± 0.016. The protein stability index (Saccharomyces cerevisiae [1]; [6]) was 0.698 ± 0.012, the protein stability index (Saccharomyces cerevisiae [1]; [7]) was 0.665 ± 0.018 and the protein stability index (Saccharomyces cerevisiae [1]; [8]) was 0.661 ± 0.0078. It also gave a protein stability index (Saccharomyces cerevisiae [1]; [9]) of 0.679 ± 0.012.
Sequence YGETRGGGRGRW has a protein stability index (Saccharomyces cerevisiae [1]; [3]) of 0.587 ± 0.049, a protein stability index (Saccharomyces cerevisiae [1]; [4]) of 0.887 ± 0.038 and a protein stability index (Saccharomyces cerevisiae [1]; [5]) of 0.475 ± 0.034. The protein stability index (Saccharomyces cerevisiae [1]; [6]) was 0.766 ± 0.16, the protein stability index (Saccharomyces cerevisiae [1]; [7]) was 0.563 ± 0.13 and the protein stability index (Saccharomyces cerevisiae [1]; [8]) was 0.538 ± 0.12. For the same sequence, the protein stability index (Saccharomyces cerevisiae [1]; [9]) was 0.65 ± 0.11.
Sequence LDVGGRRGGEHC has a protein stability index (Saccharomyces cerevisiae [1]; [3]) of 0.598 ± 0.071, a protein stability index (Saccharomyces cerevisiae [1]; [4]) of 0.646 ± 0.096 and a protein stability index (Saccharomyces cerevisiae [1]; [5]) of 0.554 ± 0.024. The protein stability index (Saccharomyces cerevisiae [1]; [6]) was 0.6665 ± 0.0011, the protein stability index (Saccharomyces cerevisiae [1]; [7]) was 0.583 ± 0.092 and the protein stability index (Saccharomyces cerevisiae [1]; [8]) was 0.594 ± 0.077. The protein stability index (Saccharomyces cerevisiae [1]; [9]) was 0.598 ± 0.011.
LFVLVLLCWMLT showed a protein stability index (Saccharomyces cerevisiae [1]; [3]) of 0.347 ± 0.038, a protein stability index (Saccharomyces cerevisiae [1]; [4]) of 0.462 ± 0.014 and a protein stability index (Saccharomyces cerevisiae [1]; [5]) of 0.373 ± 0.029. For the same sequence, the protein stability index (Saccharomyces cerevisiae [1]; [6]) was 0.42739 ± 0.00025, the protein stability index (Saccharomyces cerevisiae [1]; [7]) was 0.357 ± 0.012 and the protein stability index (Saccharomyces cerevisiae [1]; [8]) was 0.34 ± 0.013. It also gave a protein stability index (Saccharomyces cerevisiae [1]; [9]) of 0.434 ± 0.03.
Work on GFTIFFFFFFFV yielded a protein stability index (Saccharomyces cerevisiae [1]; [3]) of 0.227 ± 0.043, a protein stability index (Saccharomyces cerevisiae [1]; [4]) of 0.234 ± 0.018 and a protein stability index (Saccharomyces cerevisiae [1]; [5]) of 0.193 ± 0.035. It also gave a protein stability index (Saccharomyces cerevisiae [1]; [6]) of 0.266 ± 0.045, a protein stability index (Saccharomyces cerevisiae [1]; [7]) of 0.287 ± 0.056 and a protein stability index (Saccharomyces cerevisiae [1]; [8]) of 0.165 ± 0.0033. The protein stability index (Saccharomyces cerevisiae [1]; [9]) was 0.264 ± 0.0077.
In the case of YVFSPLSCWASV, the protein stability index (Saccharomyces cerevisiae [1]; [3]) is reported as 0.692 ± 0.056, the protein stability index (Saccharomyces cerevisiae [1]; [4]) is reported as 0.74 ± 0.0086 and the protein stability index (Saccharomyces cerevisiae [1]; [5]) is reported as 0.608 ± 0.021. It also gave a protein stability index (Saccharomyces cerevisiae [1]; [6]) of 0.7459 ± 0.0044, a protein stability index (Saccharomyces cerevisiae [1]; [7]) of 0.603 ± 0.037 and a protein stability index (Saccharomyces cerevisiae [1]; [8]) of 0.596 ± 0.017. It also gave a protein stability index (Saccharomyces cerevisiae [1]; [9]) of 0.695 ± 0.019.
RVVGLWGSACMG was tested, and the protein stability index (Saccharomyces cerevisiae [2]) was 0.603 ± 0.01.
HPPKPHHPSNPC showed a protein stability index (Saccharomyces cerevisiae [2]) of 0.691 ± 0.034.
CPPLEWSLRYPV was tested, and the protein stability index (Saccharomyces cerevisiae [2]) was 0.722 ± 0.017.
PPLRPPPPPPPP was tested, and the protein stability index (Saccharomyces cerevisiae [2]) was 0.668 ± 0.072.
GPKGVTRCGATR was tested, and the protein stability index (Saccharomyces cerevisiae [2]) was 0.721 ± 0.12.
TRSPTVAMRPKE showed a protein stability index (Saccharomyces cerevisiae [2]) of 0.676 ± 0.036.
In the case of RKKQKKQKKKKG, the protein stability index (Saccharomyces cerevisiae [2]) is reported as 0.682 ± 0.0092.
VSVGVCGYKVWG showed a protein stability index (Saccharomyces cerevisiae [2]) of 0.709 ± 0.1.
LPAAPPPPPLPP gave a protein stability index (Saccharomyces cerevisiae [2]) of 0.742 ± 0.042.
Work on PACSFPPPPFSA yielded a protein stability index (Saccharomyces cerevisiae [2]) of 0.703 ± 0.1.
WGRCVGLAGAAG gave a protein stability index (Saccharomyces cerevisiae [2]) of 0.677 ± 0.027.
LAFFEFVVDSLG gave a protein stability index (Saccharomyces cerevisiae [2]) of 0.677 ± 0.018.
With GLFSTRLFCTFL the protein stability index (Saccharomyces cerevisiae [2]) was 0.635 ± 0.026.
In the case of PTRIPRAPGPAQ, the protein stability index (Saccharomyces cerevisiae [2]) is reported as 0.694 ± 0.025.
Sequence RESTGRDQRGIV has a protein stability index (Saccharomyces cerevisiae [2]) of 0.673 ± 0.018.
In the case of FTLYLASVHFTR, the protein stability index (Saccharomyces cerevisiae [2]) is reported as 0.56 ± 0.044.
GQMSKMRDRLIA showed a protein stability index (Saccharomyces cerevisiae [2]) of 0.652 ± 0.0094.
KKRNMRINSKKQ gave a protein stability index (Saccharomyces cerevisiae [2]) of 0.7 ± 0.022.
In the case of PSGLLPILRLFL, the protein stability index (Saccharomyces cerevisiae [2]) is reported as 0.681 ± 0.047.
For GGCKSLYFEWGR, the protein stability index (Saccharomyces cerevisiae [2]) was 0.734 ± 0.01.
SGSVRSCSNTCL gave a protein stability index (Saccharomyces cerevisiae [2]) of 0.6935 ± 0.0011.
With GPVSVTFGGTYC the protein stability index (Saccharomyces cerevisiae [2]) was 0.678 ± 0.046.
Sequence LPPPGSSPRATS has a protein stability index (Saccharomyces cerevisiae [2]) of 0.718 ± 0.06.
Work on STPVEATQDVAR yielded a protein stability index (Saccharomyces cerevisiae [2]) of 0.724 ± 0.0083.
LPRLPVSPLPLP showed a protein stability index (Saccharomyces cerevisiae [2]) of 0.681 ± 0.057.
For RPPPAAPLHITS, the protein stability index (Saccharomyces cerevisiae [2]) was 0.714.
TISFASLLPPPF was tested, and the protein stability index (Saccharomyces cerevisiae [2]) was 0.723 ± 0.048.
PLPPPPPLPFHL showed a protein stability index (Saccharomyces cerevisiae [2]) of 0.79 ± 0.095.
With SQHTNTKTKLKK the protein stability index (Saccharomyces cerevisiae [2]) was 0.706 ± 0.043.
PLWCLPSLPPPF showed a protein stability index (Saccharomyces cerevisiae [2]) of 0.797 ± 0.031.
With FGGSGAYRRVGE the protein stability index (Saccharomyces cerevisiae [2]) was 0.7 ± 0.072.
Sequence KYKEEINEKIFN has a protein stability index (Saccharomyces cerevisiae [2]) of 0.646 ± 0.022.
KKKKKKKIRKKI gave a protein stability index (Saccharomyces cerevisiae [2]) of 0.682 ± 0.029.
In the case of CTPVLLLRVLGN, the protein stability index (Saccharomyces cerevisiae [2]) is reported as 0.58 ± 0.036.
Sequence SPAFPPPPGFPP has a protein stability index (Saccharomyces cerevisiae [2]) of 0.69 ± 0.04.
In the case of FTCSAIIHVCGL, the protein stability index (Saccharomyces cerevisiae [2]) is reported as 0.571 ± 0.035.
NGWGKWTKTVCQ was tested, and the protein stability index (Saccharomyces cerevisiae [2]) was 0.646 ± 0.02.
With LEFEIYHSECTV the protein stability index (Saccharomyces cerevisiae [2]) was 0.685 ± 0.088.
In the case of AWAVGPTICRRG, the protein stability index (Saccharomyces cerevisiae [2]) is reported as 0.7219 ± 0.0021.
Sequence CSSVRRRSWCFS has a protein stability index (Saccharomyces cerevisiae [2]) of 0.846 ± 0.16.
Sequence LKRSDFSFLEKV has a protein stability index (Saccharomyces cerevisiae [2]) of 0.701 ± 0.075.
Work on RPRVDLCDINPE yielded a protein stability index (Saccharomyces cerevisiae [2]) of 0.692 ± 0.021.
WLTNKYDNIVKD gave a protein stability index (Saccharomyces cerevisiae [2]) of 0.7634 ± 0.0068.
In the case of FSLCFSSFSLFP, the protein stability index (Saccharomyces cerevisiae [2]) is reported as 0.676 ± 0.016.
For GYPASGVLIVFF, the protein stability index (Saccharomyces cerevisiae [2]) was 0.512 ± 0.026.
WGGTRCGGREVV was tested, and the protein stability index (Saccharomyces cerevisiae [2]) was 0.692 ± 0.054.
RSYLLVWTSRLH was tested, and the protein stability index (Saccharomyces cerevisiae [2]) was 0.637 ± 0.02.
AVLGGLIYECVV gave a protein stability index (Saccharomyces cerevisiae [2]) of 0.634 ± 0.018.
In the case of LYIHFIRSYPTI, the protein stability index (Saccharomyces cerevisiae [2]) is reported as 0.6354 ± 0.0036.
Work on EYRCVAQHSLLH yielded a protein stability index (Saccharomyces cerevisiae [2]) of 0.743 ± 0.049.
PSPSPPPLRSPL was tested, and the protein stability index (Saccharomyces cerevisiae [2]) was 0.623 ± 0.016.
Sequence RPPRPSSSPLPP has a protein stability index (Saccharomyces cerevisiae [2]) of 0.719 ± 0.059.
Work on QIKGNNLNIDKG yielded a protein stability index (Saccharomyces cerevisiae [2]) of 0.6721 ± 0.0031.
TETAHNFPYCCD was tested, and the protein stability index (Saccharomyces cerevisiae [2]) was 0.676 ± 0.025.
